# Results as given in patent US20090143724A1, “Microprojection Array Immunization Patch and Method” (Alza Corporation, priority 2001, published 2009).
# Key:
# [1] = OVA delivery into hairless guinea pig skin from dry-coated microprojection arrays (skin biopsy fluorometry); format: in vivo; details: for Amount of ovalbumin delivered: 2 cm^2 array applied 5 seconds on HGP skin, n=3, mean ± SEM; for OVA delivered into the skin: 2 cm^2 device coated with 20% OVA solution
# Description: The treatment sites (lateral area of the thorax) of anesthetized HGPs were cleaned with isopropyl alcohol wipes (70%) and allowed to dry. The skin site was lightly stretched manually when the system was applied using an impact applicator. Following application, the stretching tension was released and the system was left on the skin for the specified period of time. For devices left on skin for more than 5 seconds, the HGPs were wrapped with Vetwrap® (3M, St Paul, Minn.) and individually housed.
# Each HGP received a dry-coated FITC-OVA microprojection array, which was applied as described above. Following system removal, the treated skin sites were thoroughly washed with 70% isopropyl alcohol to remove any residual OVA on the skin surface. The HGPs were euthanized and 8-mm skin biopsies were taken. Each tissue sample was placed in a scintillation vial with 0.1 mL deionized water. Hyamine hydroxide (0.9 mL, 1 M in methanol, JT Baker, Phillipsburg, N.J.) was then added, and the samples were incubated overnight at 60° C. Thereafter, the dissolved material was further diluted with 2 mL hyamine hydroxide/water (9:1), and fluorescence was quantitated by fluorometry and compared to known standards. Background control samples included untreated skin. A minimum replicate of three was used for each experimental condition.
# [2] = system: hairless guinea pigs (HGPs); test: Immunization of hairless guinea pigs with OVA; anti-OVA IgG titers by ELISA; format: in vivo, hairless guinea pig; details: for Increase in antibody titer over non-adjuvant controls: about 1 μg OVA with 15 μg GMDP, one week after booster
# Description: Baseline blood samples were obtained from all animals before the day of immunization. On the day of immunization, the HGPs were anesthetized and the treatment sites were cleaned with 70% isopropyl alcohol and allowed to dry. For immunizations performed by needle injection, OVA was dissolved in sterile water. Sterile 1-mL syringes with 25-gauge needles (Becton Dickinson, Franklin Lakes, N.J.) were used. ID and SC injections were performed on the dorsal-lateral area of HGPs. The quadriceps muscle of the hind leg was used for IM injection. Microprojection arrays containing dry-coated OVA were applied as described above.
# Each HGP received a primary immunization (Day 0) followed by a secondary (i.e., booster) immunization 4 weeks later with an identical article. After primary immunization, HGPs were anesthetized and blood was collected from the anterior vena cava. The serum samples were evaluated by immunoassay for the presence of anti-OVA antibodies.
# Sera from nonimmunized and immunized HGPs were tested for the presence of antibodies to OVA by enzyme-linked immunosorbent assay (ELISA). Briefly, 96-well polystyrene plates (Maxisorp, NUNC, Rochester, N.Y.) were coated with 0.1 muwell of OVA (10 μg/mL in 0.2 M Na bicarbonate/carbonate buffer, pH 9.6) and incubated overnight at 4° C. The plates were washed with PBS-Tween buffer then blocked with 200 μL of PBS/casein (0.5%)/Tween-20 (0.05%) buffer for 1 hour at room temperature. Then the plates were again washed and the test sera were added (100 μL/well at 2- to 5-fold serial dilutions, three replicates, 1 hour at room temperature). After washing, 100 μL peroxidase conjugated goat anti-guinea pig IgG antibody (Jackson ImmunoResearch Laboratories, West Grove, Pa.) was added and incubated for 1 hour at room temperature. After incubation, the plates were washed, 100 μL of substrate (ABTS, Becton Dickinson, Franklin Lakes, N.J.) was added, and they were incubated for 35 minutes at room temperature. Absorbance ([…]) was measured using a SpectraMAX 250 (Molecular Devices Corporation, Sunnyvale, Calif.). The results are expressed as endpoint antibody titers relative to nonimmunized control sera samples.
# Results are presented as the mean with its associated standard error of the mean. Comparison between groups was performed by analysis of variance (ANOVA).
# hairless guinea pigs = test: Example 2: immunization with tip-coated arrays; anti-ovalbumin IgG titer by ELISA; format: in vivo, hairless guinea pig; details: tip-coated array patch, 5 seconds wearing; two and three weeks after primary immunization; six animals
# Description: Identical microprojection arrays were coated with untagged ovalbumin using a similar methodology. The amount of protein coated on the arrays was evaluated by total protein assay. The target dose of 5 μg of ovalbumin (OVA) was coated with acceptable reproducibility (4.6±0.5 μg) using a 20 wt % OVA coating solution. Immunization studies were conducted with these arrays in one group of six hairless guinea pigs. Systems and system application in animals was the same as described above except that the wearing time in all guinea pigs was 5 seconds. Three additional groups of animals received intradermal injections of 0.1, 1.0, and 10 μg ovalbumin. Blood samples were taken at various time intervals and evaluated for antibody (IgG) titer against ovalbumin by ELISA.
# [3] = Example 2: ovalbumin delivery into hairless guinea pig skin from tip-coated arrays; format: in vivo; details: for Delivery efficiency: tip-coated arrays
# Description: Some of these microprojection arrays were applied to hairless guinea pigs (three animals per group) for evaluation of ovalbumin delivery into the skin. The skin of the animal flank was stretched manually bilaterally ( ? and ? ) at the time of application of the system. […] The system applied comprised an ovalbumin coated microprojection array, adhered to the center of a low density polyethylene film backing with an acrylate adhesive (7 cm^2 disc). Following application, the stretching tension was released and the system was removed after 5 seconds or 1 hour contact with the skin. Following removal of the system, residual drug was thoroughly washed from the skin and an 8 mm skin biopsy was taken at the location of the application. The total amount of ovalbumin delivered in the skin was determined by dissolving the skin biopsy in hyamine hydroxide (1M in methanol). Quantitation was performed by fluorimetry. […] Delivery efficiency was also found to be relatively independent of the thickness of the coating.
# [4] = 1 μg OVA, 1 week after booster immunization
molecule,measurement,setting,value
"CC(=O)NC1C(OC2C(CO)OC(O)C(NC(C)=O)C2OC(C)C(=O)N[C@@H](C)C(=O)N[C@H](CCC(N)=O)C(=O)O)OC(CO)C(O)C1O (stereo partly drawn) [GMDP, N-acetylglucosamine-(β1-4)-N-acetylmuramyl-L-alanyl-D-glutamine, reference compound]",Effect of the adjuvant on the amount of OVA delivered,"[1]; OVA and GMDP dry-coated arrays, data not shown",did not significantly affect the amount of OVA delivered
same,Antibody titers with arrays delivering GMDP and OVA versus OVA alone (dose-sparing),[2]; 1 μg OVA with about 15 μg GMDP by microprojection array,approached the titer levels achieved with OVA doses of 20 μg or greater in the absence of GMDP
same,Increase in antibody titer over non-adjuvant controls,[2]; ID administration,250%
same,Increase in antibody titer over non-adjuvant controls,[2]; microprojection array administration,1300%
"ovalbumin [model protein antigen (Grade V, SIGMA); FITC-labeled form used for coating and delivery quantitation]",Development of anti-ovalbumin IgG antibodies,hairless guinea pigs,all animals dosed with the microprojection array patch had developed anti-ovalbumin IgG antibodies
same,"Antibody level, microprojection array relative to IM injection",[2]; [4],50 fold
same,"Antibody level, microprojection array relative to SC injection",[2]; [4],10 fold
same,"Antibody titer, microprojection array relative to IM needle administration","[2]; 5 μg OVA, 1 week after booster immunization",24 fold
same,"Antibody response, microprojection array relative to subcutaneous or intramuscular administration",[2]; 1 and 5 μg doses of OVA,up to 50 fold
same,"Antibody response, microprojection array versus intradermal administration",[2]; 1 and 5 μg doses of OVA,equivalent
same,"Antibody titers, microprojection array versus conventional ID, SC or IM injection","[2]; 20 or 80 μg OVA, 1 week after booster immunization",comparable
"ovalbumin (protein, UniProt P01012 2-386, looked up, FITC label (in one form), model protein antigen (Grade V, SIGMA); FITC-labeled form used for coating and delivery quantitation) Ovalbumin: GSIGAASMEFCFDVFKELKVHHANENIFYCPIAIMSALAMVYLGAKDSTRTQINKVVRFDKLPGFGDSIEAQCGTSVNVHSSLRDILNQITKPNDVYSFSLASRLYAEERYPILPEYLQCVKELYRGGLEPINFQTAADQARELINSWVESQTNGIIRNVLQPSSVDSQTAMVLVNAIVFKGLWEKAFKDEDTQAMPFRVTEQESKPVQMMYQIGLFRVASMASEKMKILELPFASGTMSMLVLLPDEVSGLEQLESIINFEKLTEWTSSNVMEERKIKVYLPRMKMEEKYNLTSVLMAMGITDVFSSSANLSGISSAESLKISQAVHAAHAEINEAGREVVGSAEAGVDAASVSEEFRADHPFLFCIKHIATNAVLFFGRCVSP",Amount of ovalbumin delivered,[1]; 1% coating concentration,about 1 μg/cm^2
same,Amount of ovalbumin delivered,"[1]; 1% coating concentration, listed as Ovalbumin",0.9 ± 0.1 μg/cm^2
same,OVA delivered into the skin,[1]; 30 minute application,50 µg
same,OVA delivered into the skin,[1]; 1 hour application,approximately 80 μg
same,Amount of ovalbumin delivered,[1]; 5% coating concentration,~6 μg/cm^2
same,Amount of ovalbumin delivered,"[1]; 5% coating concentration, listed as Ovalbumin",5.8 ± 1.4 μg/cm^2
same,Amount of ovalbumin delivered,[1]; 20% coating concentration,~10 μg/cm^2
same,Amount of ovalbumin delivered,"[1]; 20% coating concentration, listed as Ovalbumin",9.9 ± 0.6 μg/cm^2
same,Approximate dose delivered,"[1]; Delivery condition I: 1% coating, wearing time 5 seconds, surface area 1 cm^2",~1 µg
same,Approximate dose delivered,"[1]; Delivery condition II: 5% coating, wearing time 5 seconds, surface area 1 cm^2",~5 µg
same,Approximate dose delivered,"[1]; Delivery condition III: 20% coating, wearing time 5 seconds, surface area 2 cm^2",~20 µg
same,Approximate dose delivered,"[1]; Delivery condition IV: 20% coating, wearing time 3600 seconds, surface area 2 cm^2",~80 µg
same,OVA delivered from arrays dry-coated with OVA and GMDP,[1]; array coated from OVA (1%) and GMDP (10%),approximately 1 μg
same,OVA delivered into hairless guinea pig skin,"[3]; tip-coated 2 cm^2 arrays, 5 second or 1 hour wearing",up to 4.5 μg
same,Delivery efficiency,[3]; 5 second wearing time,higher than 55%
same,Delivery efficiency,[3]; 1 hour wearing time,> 85%
same,Seroconversion after primary immunization,"[2]; 20 or 80 μg OVA by microprojection array, 2 weeks after primary immunization",seroconverted by 2 weeks after the primary immunization
same,Seroconversion after booster immunization,"[2]; OVA by microprojection array, all doses tested (1, 5, 20, 80 μg)",All animals had seroconverted
